These sequences were tested on K4 kissing-loop RNA reporter (assay: apparent KD of K4 kissing-loop reporter; higher = weaker reporter binding). Details: Eterna round: R107; input ligand: arginine 13.2 mM.
Description: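 RNA-MaP round R107: designed RNA switches with theophylline, tryptophan, arginine or FMN aptamers are transcribed on-chip within common flanks. They are titrated with a labelled K4 kissing-loop RNA reporter in RNA-MaP buffer (100 mM Tris pH 7.5, 80 mM KCl, 4 mM MgCl2), without ligand or with the indicated ligand. Median apparent KD per design.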
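Also: bound reporter read as fluorescence of individual clusters on recovered sequencing chips by microscopy, with normalized cluster intensities fitted with a binding model.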

“GGAUCCACCAGUGAUGUUGGAGAAAACUCUAAGGAUAUGACGAAAGUCAGAAGGUGGUAGACUGGACAAAGUCCGGUGGGAUCCA [FmnA10 U30+G78]” and “AUCUGUCAAGGACAACAUUACUGAGGUGAUACCAGCAUCGAAAGAUGCCCUUGGCAGCACCAACUUGCAGUGAUGUUGCAAGUAA [BrourdMod 10 - Jieux - Exclusion - Theophylline A]” are within 1.5-fold of each other in “apparent KD of K4 kissing-loop reporter” value: 229 nM for the first, 236 nM for the second.

First: GUACGCUUCCGAGUGAUGUUCGGUAAUAGUUAGGAUAUCGUUUUUUCGAGAAGGAACUGAAUGAGGAAACUCGUUCGAAGUGUAC [FMN A 16]
Second: UGAUACCAGACGGCCGCCACUCCCGUAAGUCAAAGACUUACGAAGAGAGUUUUUCAGUGAUGUUGGAGGACCGGGUCUGGUAUCU [FiskerMod 16 - Jieux - Exclusion - Tryptophan B]
The “apparent KD of K4 kissing-loop reporter” value of the first is 2.3-fold lower: 266 nM for the first, 618 nM for the second.

Compared with “CCUAUCUCAUACGAUACCAGUCAACGAGUGAUGUUCGAAUAAAUAAAUUUGCCAAAUAAUGACCCUUGGCAGCGUAUGGGAUAGG [Ex Theophylline B K4 15]”, “GUCCCGAGUGAUGUUCGGGUCGUUUGGGAAGGAGCGCCCGGAAGGGCAGGUAGGUCGCCCGGACCGUGCAGGUAACUGUGCGGCC [#2 Same State - Arginine A Attempt #18 (HarryS)]” is 2.1-fold lower in “apparent KD of K4 kissing-loop reporter” value: 313 nM for the first, 146 nM for the second.

Same assay, conditions: Eterna round: R107; input ligand: none

“UCGGACCCUGGAGGAUAUGAGUCUAGUGAUGUUAGGCGGUCCAUGCGCGUGGCGCGUUAUGCCCUUUUAGAAGGCCAGGGUCCGA [#2 Exclusion - FMN B Attempt #15 (HarryS)]” and “GGUAGCAUGGCGGCCGCCACUUAUGUUCACAUAGUGAUGUUAUGUUCACAUUUAUGGCCCUGCUUAAGGACCGGGCCAUGCUACC” are within 1.5-fold of each other in “apparent KD of K4 kissing-loop reporter” value: 104 nM for the first, 105 nM for the second.

First: AGUGAACGAGCGGCCGCCACUAACUGAGUGAUGUUCGUGAGUAGUGCUGUUCUCAUGAUUGUUUUUAGGACCGGGUUCGAUGUUG [ttbjmullin]
Second: AAGUGAUGUUGUAGUGAUGUUGUGAUGUUGCAGGAUAUAUAGUGAUGUAGAAGGGUAUGUGCAGUUUUCUUUUUUGAGUGUUGAU [aavamullin]
The “apparent KD of K4 kissing-loop reporter” value of the first is 6.8-fold higher: 391 nM for the first, 57.1 nM for the second.

First: ACGUAGUUCUAGGAUACCAGCCAAGAAGCCAGGACAAAAGUCCUGGCUGCCAGUGAUGUUGGCCCUUGGCAGCCUAGAACUACGA [Omei KL Theo B Exc B v10]
Second: GAUCUGAACGAAAGUUCGGAUCAGUCCGAUACCAGUAUGGAUUCAUACCCUUGGCAGCGGAAAUCUGCUAUGGAGUGAUGUUCCU [Theophylline A K4 13]
The “apparent KD of K4 kissing-loop reporter” value of the first is 3.4-fold lower: 121 nM for the first, 413 nM for the second.

Compared with “UGACAUUGCUCAGAUACCAGACCUGAGGAUCACCCGGGUGCCAAACGUACAAUAAUAAAGGUCCCUUGGCAGCUGAGCAAUGUCU [TheoBX 14]”, “GGGUGGCAGACGGCCGCCACUCUUAGCAGCCAGUGAGUGAUGUUCGUGGCGGAGUGAUGUUCCUAGAGGACCGGGUUUGUUGUUC [Same State Tryptophan B GF 20]” is 4.6-fold higher in “apparent KD of K4 kissing-loop reporter” value: 103 nM for the first, 478 nM for the second.

“UGGGAUUUGUCAGGAUAUGAGUGCAGUGAUGUUGCACUUAAUAAAGUACAUAGGCCCUGCUGGCACUCAGAAGGGACGGUGAUGC [Lalasobeer]” and “CAGGCCGAGUGAUGUUCGGUCUGAGUGAUAAAGGAUAUAAGGGAUUUUAGAAGGUUAUCUAAACAGACCAAACAUCUAUCCACUC [theeternabot_exclusion_KL_FMN_A_16]” are within 1.5-fold of each other in “apparent KD of K4 kissing-loop reporter” value: 103 nM for the first, 138 nM for the second.

“UUAGUAUAGAGAGGAUAUACCUUCCAGUGAUGUUGGAUAGAUGAAUUUAAUCAUCAAGCAUAGCUUGUAGAAGGCUCUAUACAUU [AK1 SS FMN B]” and “CAACCGUAACACGAUACCAGCCUAGAAGCCAGUGAUGUUGGCCUUUUUUCGGAAAUGAAAGGCCCUUGGCAGCGUGGAUAAAAUG [Lelabiised]” are within 1.5-fold of each other in “apparent KD of K4 kissing-loop reporter” value: 535 nM for the first, 505 nM for the second.

“UGUGGAGGAUAUGAUACCAGCAGUGAGAGAGAGGAAGUAUAGUGAUGUUAUAUGAGAGAAUGCCCUUGGCAGCGUAUGUAGUAGG [SSTheophylB.I]” and “AACUGUCAAGGACAACAUUACUGAGGUGAUACCAGCAUCGAAAGAUGCCCUUGGCAGCACCAACUUGCAGUGAUGUUGCAAGUAA [Design6]” are within 1.5-fold of each other in “apparent KD of K4 kissing-loop reporter” value: 218 nM for the first, 212 nM for the second.

First: CGCAGUGAUGUUGCUUAUAUUCUUGGUUAACGAGGACCGGUACGGCCGCCACUCGAUUUCUAACUAUUCCAGUGUUAAUUUGAGU [JR_ExcTryptoA_Sub006]
Second: UCCUGCAAUCUGCCACGAAAGUGGGUUGAUACCAGAGUCGAAAGACUCCCUUGGCAGCGAGUGAUGUUCGUUGCAGGUGUAUAAA [MatMod 10 - Jieux - Exclusion - Theophylline A]
The “apparent KD of K4 kissing-loop reporter” value of the first is 2.6-fold higher: 502 nM for the first, 194 nM for the second.

“AGUAGAGCAUCAGAUACCAGACAGAACUGAUGGUAAGGAGUGAUGUUCCUUAAUCAGCUUGUCCCUUGGCAGCUGAUAGUAGUCA [#14 K4 Theophylline B Same State]” and “UUCUACGAGUGAUGUUCGUAGUGUAUUCACUAGGAUAUCGUUUUUUCGAGAAGGAGUGAGGAAGUGAUACGAAAGUAUCGCUUCC [FMN A 15]” are the same in “apparent KD of K4 kissing-loop reporter” value: 431 nM for the first, 431 nM for the second.

“ACUAAGGUUUUUGGAGCAGUGAUGUUGCUCCGAGGACCGGUACGGCCGCCACUCGGUGCAUGUAUGCGCUUCACUCCGGAAGUUG [Bieron]” and “GGUUCGAGUGAUGUUCGGGUCGAUUGGGAAGGAGCGCCCGGAAGGGCAGGUAGGUCGCCCGGGCCGCGCGGGAAACCGCGCGUCC [#2 Same State - Arginine A Attempt #7 (HarryS)]” are within 1.5-fold of each other in “apparent KD of K4 kissing-loop reporter” value: 165 nM for the first, 175 nM for the second.

With “UUUAUAAUGUCGGCCGCCACUGGAUUAAUAUUUGUAUAAUCUAGUUCUGAGUGAUGUUUAGAGUCCAGGACCGGGACAUUUGUUA [#10 K4 Tryptophan B Exclusion]” the “apparent KD of K4 kissing-loop reporter” value was 651 nM.
